Results from article PMC4132792, “Engagement of Nucleotide-binding Oligomerization Domain-containing Protein 1 (NOD1) by Receptor-interacting Protein 2 (RIP2) Is Insufficient for Signal Transduction*” (The Journal of Biological Chemistry, 2014).
Changes are numbered by the printed parent chain. In names and notes the source's numbering stands.

B1: His6-tagged recombinant NOD1 CARD (residues 15-110), wild type (domain or fragment, human, UniProt Q9Y239-1 15-110, looked up)
chain: ESHPHIQLLKSNRELLVTHIRNTQCLVDNLLKNDYFSAEDAEIVCACPTQPDKVRKILDLVQSKGEEVSEFFLYLLQQLADAYVDLRPWLLEIGFS
notes: NOD1 CARD domain, human, residues 15-110; the dimer is stabilised by an interprotomer disulfide bond through Cys-39 (from the cited crystal structures); also called wild-type NOD1 CARD; wild-type NOD1
B2: His6-tagged recombinant NOD1 CARD (residues 15-110) E56K (domain or fragment, human, UniProt Q9Y239-1 15-110, looked up)
chain: B1 chain with E42K
notes: NOD1 CARD domain, human, residues 15-110, E56K
B3: His6-tagged recombinant NOD1 CARD (residues 15-110) D48K (domain or fragment, human, UniProt Q9Y239-1 15-110, looked up)
chain: B1 chain with D34K
notes: NOD1 CARD domain, human, residues 15-110, D48K
B4: His6-tagged recombinant NOD1 CARD (residues 15-110) N43S (domain or fragment, human, UniProt Q9Y239-1 15-110, looked up)
chain: B1 chain with N29S
notes: NOD1 CARD domain, human, residues 15-110, N43S (a rare polymorphism)
B5: His6-tagged recombinant NOD1 CARD (residues 15-110) E53K (domain or fragment, human, UniProt Q9Y239-1 15-110, looked up)
chain: B1 chain with E39K
notes: NOD1 CARD domain, human, residues 15-110, E53K
B6: His6-tagged recombinant NOD1 CARD (residues 15-110) A55V (domain or fragment, human, UniProt Q9Y239-1 15-110, looked up)
chain: B1 chain with A41V
notes: NOD1 CARD domain, human, residues 15-110, A55V (a polymorphism)

Target: the molecule itself
Test: SEC; Superdex 75 HiLoad 16/60, 25 mM sodium phosphate, 100 mM NaCl, no reducing agent; monomer and dimer

Stoichiometry N, 2:
B1
B2
B3
B4
B5
B6
